US20260098059A1 (ENDOMET BIOSCIENCES, published 2026)
Values joined by “and” are separate entries in the source; they are usually repeats but may differ in a detail not shown here. Equal entries are not always repeated. Bridges are numbered along the chain shown (N, C = ends). [ ]: non-standard residue; d: D form. The star is where a group is joined. N3 = N-terminal azide group, clicked with Pra; NMeW = CN[C@@H](Cc1c[nH]c2ccccc12)C(=O)O; Stearoyl = CCCCCCCCCCCCCCCCCC(=O)*; Palmitoyl = CCCCCCCCCCCCCCCC(=O)*; αMeV = CC(C)[C@](C)(N)C(=O)O; αMeS = C[C@](N)(CO)C(=O)O; Pra = C#CC[C@H](N)C(=O)O; GABA = NCCCC(=O)O; βAla = NCCC(=O)O; Sar = CNCC(=O)O

T1: β-catenin (UniProt P35222 134-665, limits assumed, biotinylated in the SPR and plate assays)
T1 sequence (looked up): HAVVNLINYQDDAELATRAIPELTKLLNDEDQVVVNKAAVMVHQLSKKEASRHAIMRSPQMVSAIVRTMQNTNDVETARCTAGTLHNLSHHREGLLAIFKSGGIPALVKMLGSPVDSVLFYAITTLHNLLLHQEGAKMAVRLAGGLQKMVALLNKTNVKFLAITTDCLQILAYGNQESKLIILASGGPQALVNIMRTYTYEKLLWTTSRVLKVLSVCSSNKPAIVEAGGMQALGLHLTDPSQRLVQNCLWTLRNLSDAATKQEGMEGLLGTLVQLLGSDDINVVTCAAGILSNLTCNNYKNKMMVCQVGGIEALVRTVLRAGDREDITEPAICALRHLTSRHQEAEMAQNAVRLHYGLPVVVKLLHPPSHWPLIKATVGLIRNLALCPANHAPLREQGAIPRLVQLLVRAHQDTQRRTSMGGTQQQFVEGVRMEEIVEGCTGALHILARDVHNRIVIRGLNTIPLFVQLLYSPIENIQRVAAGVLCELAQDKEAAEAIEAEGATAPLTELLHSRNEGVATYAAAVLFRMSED

B1: SEQ ID NO: 173 (peptide)
peptide: KWFLICEWG
HELM: PEPTIDE1{K.W.F.L.I.C.E.W.G}$PEPTIDE1,PEPTIDE1,1:R3-7:R3$$$V2.0
SMILES: CC[C@H](C)[C@@H]1NC(=O)[C@H](CC(C)C)NC(=O)[C@H](Cc2ccccc2)NC(=O)[C@H](Cc2c[nH]c3ccccc23)NC(=O)[C@@H](N)CCCCNC(=O)CC[C@@H](C(=O)N[C@@H](Cc2c[nH]c3ccccc23)C(=O)NCC(=O)O)NC(=O)[C@H](CS)NC1=O
B2: SEQ ID NO: 205 (peptide)
peptide: KWXLISAWD
HELM: PEPTIDE1{K.W.[CC(C)(C)[C@H](N[*:1])C(=O)[*:2]].L.I.S.A.W.D}$PEPTIDE1,PEPTIDE1,1:R3-9:R3$$$V2.0
SMILES: CC[C@H](C)[C@@H]1NC(=O)[C@H](CC(C)C)NC(=O)[C@H](C(C)(C)C)NC(=O)[C@H](Cc2c[nH]c3ccccc23)NC(=O)[C@@H](N)CCCCNC(=O)C[C@@H](C(=O)O)NC(=O)[C@H](Cc2c[nH]c3ccccc23)NC(=O)[C@H](C)NC(=O)[C@H](CO)NC1=O
B3: SEQ ID NO: 180 (peptide)
peptide: KMWFLICEWG
HELM: PEPTIDE1{K.M.W.F.L.I.C.E.W.G}$PEPTIDE1,PEPTIDE1,1:R3-8:R3$$$V2.0
SMILES: CC[C@H](C)[C@@H]1NC(=O)[C@H](CC(C)C)NC(=O)[C@H](Cc2ccccc2)NC(=O)[C@H](Cc2c[nH]c3ccccc23)NC(=O)[C@H](CCSC)NC(=O)[C@@H](N)CCCCNC(=O)CC[C@@H](C(=O)N[C@@H](Cc2c[nH]c3ccccc23)C(=O)NCC(=O)O)NC(=O)[C@H](CS)NC1=O
B4: SEQ ID NO: 177 (peptide)
peptide: DMWFLICFWKG
HELM: PEPTIDE1{D.M.W.F.L.I.C.F.W.K.G}$PEPTIDE1,PEPTIDE1,1:R3-10:R3$$$V2.0
SMILES: CC[C@H](C)[C@@H]1NC(=O)[C@H](CC(C)C)NC(=O)[C@H](Cc2ccccc2)NC(=O)[C@H](Cc2c[nH]c3ccccc23)NC(=O)[C@H](CCSC)NC(=O)[C@@H](N)CC(=O)NCCCC[C@@H](C(=O)NCC(=O)O)NC(=O)[C@H](Cc2c[nH]c3ccccc23)NC(=O)[C@H](Cc2ccccc2)NC(=O)[C@H](CS)NC1=O
B5: SEQ ID NO: 208 (peptide)
peptide: KWFEISFWG
HELM: PEPTIDE1{K.W.F.E.I.S.F.W.G}$PEPTIDE1,PEPTIDE1,1:R3-4:R3$$$V2.0
SMILES: CC[C@H](C)[C@H](NC(=O)[C@@H]1CCC(=O)NCCCC[C@H](N)C(=O)N[C@@H](Cc2c[nH]c3ccccc23)C(=O)N[C@@H](Cc2ccccc2)C(=O)N1)C(=O)N[C@@H](CO)C(=O)N[C@@H](Cc1ccccc1)C(=O)N[C@@H](Cc1c[nH]c2ccccc12)C(=O)NCC(=O)O
B6: SEQ ID NO: 31 (peptide)
peptide: KMSRMWYLISFW
HELM: PEPTIDE1{K.M.S.R.M.W.Y.L.I.S.F.W}$PEPTIDE1,PEPTIDE1,1:R3-12:R2$$$V2.0
SMILES: CC[C@H](C)[C@@H]1NC(=O)[C@H](CC(C)C)NC(=O)[C@H](Cc2ccc(O)cc2)NC(=O)[C@H](Cc2c[nH]c3ccccc23)NC(=O)[C@H](CCSC)NC(=O)[C@H](CCCNC(=N)N)NC(=O)[C@H](CO)NC(=O)[C@H](CCSC)NC(=O)[C@@H](N)CCCCNC(=O)[C@H](Cc2c[nH]c3ccccc23)NC(=O)[C@H](Cc2ccccc2)NC(=O)[C@H](CO)NC1=O
B7: SEQ ID NO: 206 (peptide)
peptide: KWLLISAWD
HELM: PEPTIDE1{K.W.L.L.I.S.A.W.D}$PEPTIDE1,PEPTIDE1,1:R3-9:R3$$$V2.0
SMILES: CC[C@H](C)[C@@H]1NC(=O)[C@H](CC(C)C)NC(=O)[C@H](CC(C)C)NC(=O)[C@H](Cc2c[nH]c3ccccc23)NC(=O)[C@@H](N)CCCCNC(=O)C[C@@H](C(=O)O)NC(=O)[C@H](Cc2c[nH]c3ccccc23)NC(=O)[C@H](C)NC(=O)[C@H](CO)NC1=O
B8: SEQ ID NO: 394 (peptide)
peptide: Stearoyl-[βAla]W[NMeW]E[αMeS]ILDEH[αMeV]QRVW-OH
SMILES: CCCCCCCCCCCCCCCCCC(=O)NCCC(=O)N[C@@H](Cc1c[nH]c2ccccc12)C(=O)N(C)[C@@H](Cc1c[nH]c2ccccc12)C(=O)N[C@@H](CCC(=O)O)C(=O)N[C@@](C)(CO)C(=O)N[C@H](C(=O)N[C@@H](CC(C)C)C(=O)N[C@@H](CC(=O)O)C(=O)N[C@@H](CCC(=O)O)C(=O)N[C@@H](Cc1c[nH]cn1)C(=O)N[C@](C)(C(=O)N[C@@H](CCC(N)=O)C(=O)N[C@@H](CCCNC(=N)N)C(=O)N[C@H](C(=O)N[C@@H](Cc1c[nH]c2ccccc12)C(=O)O)C(C)C)C(C)C)[C@@H](C)CC
B9: SEQ ID NO: 178 (peptide)
peptide: DWFLICAWKG
HELM: PEPTIDE1{D.W.F.L.I.C.A.W.K.G}$PEPTIDE1,PEPTIDE1,1:R3-9:R3$$$V2.0
SMILES: CC[C@H](C)[C@@H]1NC(=O)[C@H](CC(C)C)NC(=O)[C@H](Cc2ccccc2)NC(=O)[C@H](Cc2c[nH]c3ccccc23)NC(=O)[C@@H](N)CC(=O)NCCCC[C@@H](C(=O)NCC(=O)O)NC(=O)[C@H](Cc2c[nH]c3ccccc23)NC(=O)[C@H](C)NC(=O)[C@H](CS)NC1=O
B10: SEQ ID NO: 181 (peptide)
peptide: KWFLICEWG
HELM: PEPTIDE1{K.W.F.L.I.C.E.W.G}$PEPTIDE1,PEPTIDE1,1:R3-7:R3$$$V2.0
SMILES: CC[C@H](C)[C@@H]1NC(=O)[C@H](CC(C)C)NC(=O)[C@H](Cc2ccccc2)NC(=O)[C@H](Cc2c[nH]c3ccccc23)NC(=O)[C@@H](N)CCCCNC(=O)CC[C@@H](C(=O)N[C@@H](Cc2c[nH]c3ccccc23)C(=O)NCC(=O)O)NC(=O)[C@H](CS)NC1=O
B11: SEQ ID NO: 391 (peptide)
peptide: Stearoyl-[βAla]W[NMeW]E[αMeS]ILDEH[αMeV]QRVWG-OH
SMILES: CCCCCCCCCCCCCCCCCC(=O)NCCC(=O)N[C@@H](Cc1c[nH]c2ccccc12)C(=O)N(C)[C@@H](Cc1c[nH]c2ccccc12)C(=O)N[C@@H](CCC(=O)O)C(=O)N[C@@](C)(CO)C(=O)N[C@H](C(=O)N[C@@H](CC(C)C)C(=O)N[C@@H](CC(=O)O)C(=O)N[C@@H](CCC(=O)O)C(=O)N[C@@H](Cc1c[nH]cn1)C(=O)N[C@](C)(C(=O)N[C@@H](CCC(N)=O)C(=O)N[C@@H](CCCNC(=N)N)C(=O)N[C@H](C(=O)N[C@@H](Cc1c[nH]c2ccccc12)C(=O)NCC(=O)O)C(C)C)C(C)C)[C@@H](C)CC

Target: T1, β-catenin
Experiment: cell-based or functional assay

Row | Wnt Reporter EC50 | Proliferation IC50, Wnt dependent cells | Proliferation IC50, Endo cells | Binder
1 | > 30 µM | – | – | N3-WESILDEHVQRVW[Pra]-NH2 (triazole N-14) [SEQ ID NO: 33]
2 | > 7.5 µM and ≤ 15 µM | 4.7 µM | – | Stearoyl-W[NMeW]E[αMeS]ILDEH[αMeV]QRVWG-OH [SEQ ID NO: 390]
3 | > 7.5 µM and ≤ 15 µM | – | – | KWFLICFWEG (cyclo-H2N-K(G*)WFLICFWE*G-COOH) [SEQ ID NO: 174]
4 | ≤ 7.5 µM | – | – | {Stearoyl-GABA}-W[NMeW]E[αMeS]ILDEH[αMeV]QRVWG-OH [SEQ ID NO: 392]
5 | > 30 µM | – | – | B1
6 | > 30 µM | – | – | B2
7 | ≤ 7.5 µM | – | – | B3
8 | > 7.5 µM and ≤ 15 µM | – | – | B4
9 | > 7.5 µM and ≤ 15 µM | – | – | Palmitoyl-GW[NMeW]E[αMeS]ILDEH[αMeV]QRVW-OH [SEQ ID NO: 398]
10 | > 7.5 µM and ≤ 15 µM | 2.9 µM | 15 µM | Palmitoyl-W[NMeW]E[αMeS]ILDEH[αMeV]QRVWG-OH [SEQ ID NO: 396]
11 | > 30 µM | – | – | H-MIRMWFLICAWG-OH [SEQ ID NO: 166]
12 | ≤ 7.5 µM | – | – | H-MSRMWFLISFWEG-OH [SEQ ID NO: 57]
13 | > 22.5 µM and ≤ 30 µM | – | – | H-MSRMWFLISFWRG-OH [SEQ ID NO: 58]
14 | > 7.5 µM and ≤ 15 µM | – | – | Palmitoyl-W[NMeW]E[αMeS]ILDEH[αMeV]QRVW-OH [SEQ ID NO: 397]
15 | > 7.5 µM and ≤ 15 µM | 6.8 µM | – | {Stearoyl-GABA}-W[NMeW]E[αMeS]ILDEH[αMeV]QRVW-OH [SEQ ID NO: 395]
16 | > 7.5 µM and ≤ 15 µM | – | – | B5
17 | > 30 µM | – | – | B6
18 | > 30 µM | – | – | H-[2Aoc]WFLICFWG-OH [SEQ ID NO: 139]
19 | > 15 µM and ≤ 22.5 µM | – | – | B7
20 | ≤ 7.5 µM | – | – | H-MAFLISFWG-OH [SEQ ID NO: 210]
21 | ≤ 7.5 µM | – | – | H-MWFLICAWG-OH [SEQ ID NO: 211]
22 | ≤ 7.5 µM | – | – | H-MWFLICFW[Sar]-OH [SEQ ID NO: 213]
23 | > 7.5 µM and ≤ 15 µM | – | – | Ac-MWILISFWG-OMe [SEQ ID NO: 222]
24 | > 7.5 µM and ≤ 15 µM | – | – | B8
25 | ≤ 7.5 µM | – | – | B9
26 | > 30 µM | – | – | B10
27 | ≤ 7.5 µM | 4.8 µM | – | B11
